The target in this assay is T1, P-selectin glycoprotein ligand 1 (PSGL-1) with the O-bound glycan structure 6-sulfo N-acetyl lactosamine … (human, UniProt Q14242 42-412).
T1 construct: whole, on cells; also called slan
T1 sequence (looked up): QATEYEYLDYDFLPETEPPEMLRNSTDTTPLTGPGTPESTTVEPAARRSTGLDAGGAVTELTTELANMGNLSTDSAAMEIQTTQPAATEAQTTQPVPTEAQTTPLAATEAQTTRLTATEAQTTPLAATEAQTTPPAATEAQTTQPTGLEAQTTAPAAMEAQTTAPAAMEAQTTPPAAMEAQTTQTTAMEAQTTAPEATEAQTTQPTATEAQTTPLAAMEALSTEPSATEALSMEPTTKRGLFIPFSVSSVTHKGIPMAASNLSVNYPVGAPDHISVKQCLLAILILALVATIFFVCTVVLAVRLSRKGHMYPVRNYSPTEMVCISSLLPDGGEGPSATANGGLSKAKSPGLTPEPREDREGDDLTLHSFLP
The assay is described as follows: affinity to slan-DCs; method not stated.

Changes are numbered by the printed parent chain.

B1: monoclonal IgM antibody MB4 (antibody, V domains shown)
VH: EVKLQESGPGLVQPSQSLSITCTVSGFSLTTYGVHWIRQSPGKGLEWLGVIWSGGGTDFNVAFMSRLSINKDNSKSQIFFKMNSLQANDTAIYYCARRTTNDGNYAFAYWGQGTLVTVS
VL: DIVMTQSPLSLPVSLGDQASISCRSSQNILHSDGSTYLEWYLQKPGQSPKLLIYKVSNRFSGVPDRFSGSGSGTDFTLKISRVEAEDLGVYYCFQGSHVPWTFGGGTKLEIKR
notes: also called anti-slan antibody MB4
For the molecule B1, the dissociation constant (Kd) turned out to be 0.4 pM and the “fold higher affinity than DD2 or M-DC8” value is about 25 fold.

B2: monoclonal IgM antibody MB6 (antibody, V domains shown)
VH: B1 VH with Q5E, E6Q, P14L, M64I, I78V
VL: B1 VL with S35N
notes: also called anti-slan antibody MB6
Regarding B2, the Kd worked out at 0.4 pM and the “fold higher affinity than DD2 or M-DC8” value was about 25 fold.

As usually defined, the Kd is the constant that tells how readily two partners part at equilibrium. Low values mean a tighter complex, high ones a looser complex.
